{"source": "paper PMC5983119", "key": {"TDP-43 WT (mouse)": {"target": "TDP-43 WT (mouse) (UniProt Q921F2)", "test": "EMSA", "set-up": "unit not given beside the values", "settings": "5% acrylamide gel, protein 0.25-2 ug with 32P RNA in unspecified binding buffer, salt, pH and temperature not given"}, "[1]": {"target": "TDP-43 M323K (LCDmut) M323K (mouse) (UniProt Q921F2)", "test": "EMSA", "set-up": "unit not given beside the values", "settings": "5% acrylamide gel, protein 0.25-2 ug with 32P RNA in unspecified binding buffer, salt, pH and temperature not given"}}, "data": [{"sequence": "UGUGUGUGUGUG [(UG)6 RNA]", "values": [{"measurement": "Kd", "setting": "TDP-43 WT (mouse)", "value": 27600}, {"measurement": "Kd", "setting": "[1]", "value": 32200}]}]}
